The text below walks through data of the supplement of paper PMC10567573.

The nature of the data set: protein stability index of a GFP-peptide fusion (GPS, HEK-293T) (PSI 1-6); higher = more stable.
Where [1] appears, read: treatment: DMSO, c terminus: a fixed tail appended.
The mark [2] stands for this setting: treatment: MLN4924 1 uM, 8 h, c terminus: a fixed tail appended.
Where [3] appears, read: treatment: DMSO, c terminus: native.
Setting [4] is: treatment: MLN4924 1 uM, 8 h, c terminus: native.

± gives the standard deviation.
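Also: 24-mer peptide tiles fused after GFP, lentivirally expressed, FACS-sorted into six equal bins by GFP/DsRed ratio, decoded by Illumina sequencing, PSI is the read-weighted mean bin number.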

Consider LKHQTVYRLLKCAPRGKNGFTPLH [FEM1A], for which the protein stability index was 2.71 ± 0.69 under setting [1] and 2.39 ± 0.57 under setting [2].
For the sequence YCNFNKYIPRRLEEAAMQKCLVTE [RSAD1], the protein stability index runs as follows: under setting [1], 2.32 ± 0.41; under setting [2], 2.51 ± 0.38.
On the same counts, the results for KSKVVGDRENGSDNLPSSAGSGDK [TPD52L2] are 5.39 ± 0.1 and 5.55 ± 0.16.
With GYGRDRDYSDHPSGGSYRDSYESY [RBMX], the protein stability index under setting [1] was found to be 3.91 ± 0.2 and the protein stability index under setting [2] is 3.462 ± 0.032.
Regarding AEKRQIGDQEGPRPARSTLDELLG [FBF1], the protein stability index amounted to 4.64 ± 0.22 under setting [1] and 4.93 ± 0.1 under setting [2].
Turning to RLQSSFWIVDKQHVYIGSAGLDWQ [PLD5], the protein stability index was determined as 2.69 ± 0.46 under setting [1] and 2.26 ± 0.38 under setting [2].
For the sequence VPRTLSPHQYHSVHGVGMVPEWSD [TBX5], the protein stability index by setting is: under setting [1], 3.62 ± 0.25; under setting [2], 3.77 ± 0.16.
Regarding GLEGLEDAPPVELQLLHECSPSQM [FANCE], the protein stability index by setting is: under setting [1], 4.77 ± 0.19; under setting [2], 4.66 ± 0.12.
On the same counts, the results for PLFEDVQMLRKTVKDEAHQAQKDP [PPP2R5C] are 5.37 ± 0.22 and 5.3 ± 0.17.
Take LQASDRYRDLAGGTGRSAKEQVLR [FCHSD1]: the protein stability index under setting [1] was determined as 4.18 ± 0.24 and the protein stability index under setting [2] was 4.29 ± 0.11.
As for QQKQQIMAALNSQTAVQFQQYAAQ [ACBD3], the protein stability index runs as follows: under setting [1], 3.21 ± 0.17; under setting [2], 3.27 ± 0.16.
Regarding LERLAYLHARLRELLCELGRPSMV [PRAME], the protein stability index runs as follows: under setting [1], 2.42 ± 0.16; under setting [2], 2.3 ± 0.33.
Take PPGSHLLYAKMIQKLADLRSLNEE [VDR]: the protein stability index was 2.61 ± 0.11 under setting [1] and 2.67 ± 0.25 under setting [2].
Turning to AMDNHSDSEEELAAFCPQLDDSTV [RETREG3], the protein stability index amounted to 5.34 ± 0.23 under setting [1] and 5.4 ± 0.14 under setting [2].
MDADEGQDMSQVSGKESPPVSDTP [IKZF1] registered a protein stability index under setting [1] of 5.35 ± 0.28 and a protein stability index under setting [2] of 5.28 ± 0.6.
On the same counts, the results for ESGPSAEKYSVATQLFIGGVTGWC [FUNDC2] are 2.14 ± 0.29 and 1.97 ± 0.38.
YSLVLELSDSGAFRRSLHDPDGLV [APMAP] registered a protein stability index under setting [1] of 2.28 ± 0.48 and a protein stability index under setting [2] of 2.14 ± 0.38.
As to VSCPEGRADCASESACSSDSLDEA [PWWP2B], the protein stability index under setting [1] stood at 5.4 ± 0.38 and the protein stability index under setting [2] was found to be 5.41 ± 0.42.
Consider LSIRCQHQEQVEDLTASHDAALLE [MTUS2], for which the protein stability index by setting is: under setting [1], 4.66 ± 0.22; under setting [2], 4.86 ± 0.19.
Consider GSSLSGSLCSLLESQSTSLRGSYN [LURAP1L], for which the protein stability index under setting [1] was 3.07 ± 0.14 and the protein stability index under setting [2] is 2.87 ± 0.29.
With AFPAAVSSMKKFCRPLLPSCTTRL [PSD2], the protein stability index came out at 2.33 ± 0.27 under setting [1] and 2.32 ± 0.093 under setting [2].
Under setting [1], AIDMFIIGATFTDWFTSYVKNVVS [FBXO3] came in with a protein stability index of 2.82 ± 0.35.
Regarding IYVHILKDTRMAEEYCHKHYDRNK [VPS39], the protein stability index turned out to be 2.19 ± 0.39 under setting [1] and 2 ± 0.28 under setting [2].
On to KREEEALEERRLSRGEIPTLQRS [PKD2L1], for which the protein stability index by setting is: under setting [3], 5.33 ± 0.22; under setting [4], 5.23 ± 0.28.
WGLEEEDFQPREEAMLYHNQTAEL [P3H4]: the protein stability index is 4.61 ± 0.084 under setting [1] and 4.5 ± 0.48 under setting [2].
As to DESQISAEEAEDHGRIPDPDDFVP [FAM189A2], the protein stability index is, setting by setting: under setting [1], 5.6 ± 0.2; under setting [2], 5.61 ± 0.15.
On the same counts, the results for YCYRCGNQAAIMELDDTLKYSFLQ [PPP2CA] are 2.74 ± 0.58 and 2.58 ± 0.5.
With YEFNPDFLEEAHEWNQKRARKAMR [N4BP2L1], the protein stability index reads like this: under setting [1], 3.88 ± 0.2; under setting [2], 4.19 ± 0.29.
In the case of VKKCIFLLFINHRLVESTSLRKAI [MLH1], the protein stability index runs as follows: under setting [1], 3.14 ± 0.47; under setting [2], 2.97 ± 0.73.
On the same counts, the results for TIIPILQHLKYKEHPEALSCLLLQ [INTS3] are 2.35 ± 0.15 and 2.25 ± 0.14.
Turning to SPKTNGHIENGPFSLEQQLDDEDD [SRPK2], the protein stability index is 5.522 ± 0.051 under setting [1] and 5.56 ± 0.22 under setting [2].
For the sequence DKLSQKSSSSKLSRSPLKIVKKPK [EPB41L3], the protein stability index by setting is: under setting [1], 4.3 ± 0.66; under setting [2], 4.79 ± 0.23.
Sequence ETGEAARDPSLRPARTVLVGSLSW had a protein stability index under setting [1] of 3.06 ± 0.32 and a protein stability index under setting [2] of 2.88 ± 0.27.
As to PPPSRPSVAVPPPPPNRMYPPPPP [WASL], the protein stability index by setting is: under setting [1], 4.48 ± 0.2; under setting [2], 4.49 ± 0.2.
On the same counts, the results for VTEFILLGLTQNPEGQKVLFVTFL [OR4A15] are 2.96 ± 0.44 and 3.27 ± 0.29.
In the case of VVGNWQYFFPVIFSKASDSLQLVF [MAGEA6], the protein stability index turned out to be 3.21 ± 0.34 under setting [1] and 3.32 ± 0.63 under setting [2].
In the case of ETNEEDKTLQEIYRKYRKLIESEL [FBXO39], the protein stability index is 3.02 ± 0.44 under setting [1] and 3.4 ± 0.34 under setting [2].
Regarding NGTAWTYHSQDELGGFSHWGRLTS [PKD2L1], the protein stability index reads like this: under setting [1], 2.38 ± 0.4; under setting [2], 2.6 ± 0.2.
For LPPCLLPLSPPTAPDRATAVATAS [TRIB3], the protein stability index is 4.45 ± 0.31 under setting [1] and 4.35 ± 0.26 under setting [2].
Turning to VPPGDYLFQVVINPNFEVAESDYS [LOXL2], the protein stability index reads like this: under setting [1], 2.31 ± 0.37; under setting [2], 2.12 ± 0.43.
Take LQAELAAQEALREKAAALERQLKV [LRRC45]: the protein stability index runs as follows: under setting [1], 4.18 ± 0.094; under setting [2], 4.25 ± 0.29.
On the same counts, the results for ERVEAFSDGVYAIVATLLILDICE [TMEM175] are 3.05 ± 0.15 and 3.15 ± 0.22.
Sequence RLFQQSCPTGLVFSNSCKCCTWN [CHIT1] registered a protein stability index under setting [3] of 2.37 ± 0.44 and a protein stability index under setting [4] of 2.37 ± 0.28.
Take WVFGTSFLPFLLCAVLLSAVQAQA [FADS1]: the protein stability index stood at 3.09 ± 0.6 under setting [1] and 2.51 ± 0.12 under setting [2].
On to IDDLEDDPVVNGERSGCALTDAVA [TCF25], for which the protein stability index under setting [1] amounted to 5.3 ± 0.19 and the protein stability index under setting [2] came out at 5.37 ± 0.11.
On to EQILELLVLEQFLTILPTEIETWV [ZNF449], for which the protein stability index reads like this: under setting [1], 3.15 ± 0.38; under setting [2], 2.73 ± 0.52.
TLPYPVKIKVRFSFFLQIYLIMIF [HACD3]: the protein stability index was 2.86 ± 0.94 under setting [1] and 2.84 ± 0.72 under setting [2].
Regarding LDDLSQKLKPLGEAEREFILNLKK [NLN], the protein stability index runs as follows: under setting [1], 3.36 ± 0.44; under setting [2], 3.07 ± 0.22.
In turn, APTSTCRTSVGVAVLGGFLYAVGG [KLHL20] yielded a protein stability index under setting [1] of 3.02 ± 0.94 and a protein stability index under setting [2] of 2.71 ± 1.2.
In the case of EVIEKPENDPEWWKCKNARGQVGL [NCK2], the protein stability index by setting is: under setting [1], 4.28 ± 0.31; under setting [2], 4.368 ± 0.038.
For the sequence SATCTTGVMSAYAMCVRYDGVEVD [ADAMTSL2], the protein stability index runs as follows: under setting [1], 2.72 ± 0.32; under setting [2], 2.63 ± 0.17.
Turning to LQLKETLATQEPTDNQVRLRKRKE [DLC1], the protein stability index is, setting by setting: under setting [1], 5.18 ± 0.3; under setting [2], 5.32 ± 0.24.
For the sequence RSVSDQFYRYKMPRLIAKVEGKGN [EIF5], the protein stability index was determined as 3.47 ± 0.19 under setting [1] and 3.46 ± 0.21 under setting [2].
VSFVIHNLPIIAKMAAVSKASGRF [SEPHS2]: the protein stability index under setting [1] came to 3.08 ± 0.29 and the protein stability index under setting [2] was found to be 2.75 ± 0.61.
Take IQRIRSEIENVKKQASNLETAIAD [KRT71]: the protein stability index under setting [1] was 4.42 ± 0.29 and the protein stability index under setting [2] is 4.61 ± 0.31.
On to LHLKRQPKRRWLFWNSPSSPSSSA [RHOBTB2], for which the protein stability index worked out at 2.27 ± 0.25 under setting [1] and 2.53 ± 0.21 under setting [2].
On the same counts, the results for TPLHVAAFLGDAEIIELLILSGAR [ANKRD44] are 2.57 ± 0.7 and 2.52 ± 0.22.
On the same counts, the results for FQEWEAHRNLSQLPNFAFSVPLAY [TCF25] are 2.73 ± 0.58 and 2.4 ± 0.25.
As for VTQEPRAKKGRRNQSVEPKKEEPE [ZMYND11], the protein stability index runs as follows: under setting [1], 5.45 ± 0.24; under setting [2], 5.6 ± 0.21.
In the case of YDLWASDNPLDRPLVGQDEFFLEQ [NOP53], the protein stability index was found to be 4.31 ± 0.13 under setting [1] and 3.69 ± 0.43 under setting [2].
On the same counts, the results for QAREKELLELQSQQACTHTKETEQ [CCDC89] are 5.55 ± 0.21 and 5.61 ± 0.17.
On the same counts, the results for LSPEPPVYSLQDFDTLATVGTGTF [PRKX] are 3.64 ± 0.21 and 3.59 ± 0.31.
On to SAESMVEYGTCMCLVKGIFYHCSN [SPRY1], for which the protein stability index is 2.65 ± 0.42 under setting [1] and 2.55 ± 0.34 under setting [2].
For TACLTDRGIIMTFGSGSNGCLGHG [NEK8], the protein stability index under setting [1] amounted to 2.23 ± 0.2 and the protein stability index under setting [2] came to 2.28 ± 0.32.
On the same counts, the results for FLKEYFPIEVVTEGLLNTYQELLG [NLN] are 2.44 ± 0.51 and 2.52 ± 0.55.
For PLGSPSPRPRRAKRFASLSRFVET [ADAMTS4], the protein stability index runs as follows: under setting [1], 3.5 ± 0.28; under setting [2], 3.41 ± 0.21.
For the sequence TLPVSGNLLDVYSSQGVATPAITV [TFE3], the protein stability index turned out to be 2.58 ± 0.24 under setting [1] and 2.73 ± 0.27 under setting [2].
On the same counts, the results for VLNPHPSLGYKEIRKGESRSEALA [CHGA] are 4.14 ± 0.19 and 4.5 ± 0.3.
EDKTFGLKNKKGAKQQKFIKAVTH [ZC3H15]: the protein stability index was 4.26 ± 0.3 under setting [1] and 4.39 ± 0.23 under setting [2].
As for LGGVKKSATLRSFEGLMGTIKSKV [TPD52L3], the protein stability index is, setting by setting: under setting [1], 2.64 ± 0.3; under setting [2], 2.54 ± 0.26.
With YGLKPLTPNSKYVKLNVGGSLHYT [KCTD13], the protein stability index is 2.33 ± 0.23 under setting [1] and 2.49 ± 0.19 under setting [2].
As to GAKDSELASQNKPLWQCYLGRFND [PDS5B], the protein stability index runs as follows: under setting [1], 2.51 ± 0.37; under setting [2], 3.25 ± 0.3.
